Results as given in paper PMC3416671, “Neuronal RING finger protein 11 (RNF11) regulates canonical NF-κB signaling” (Journal of Neuroinflammation, 2012).

T1: endogenous RNF11 (murine primary cortical neurons) (mouse (endogenous in primary cortical …, UniProt Q9QYK7 1-154))
T1 construct: RING finger protein 11 (RNF11), endogenous in primary cortical neurons of C57BL/6 mice; also called RING finger protein 11; source: endogenous, murine primary cortical neuron lysate
T1 sequence (looked up): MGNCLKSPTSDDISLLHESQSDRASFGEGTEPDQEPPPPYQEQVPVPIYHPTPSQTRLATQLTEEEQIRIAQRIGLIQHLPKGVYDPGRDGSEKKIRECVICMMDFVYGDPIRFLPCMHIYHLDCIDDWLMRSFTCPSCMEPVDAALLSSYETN


Molecular target: T1, endogenous RNF11 (murine primary …)
Assay: co-IP; lysates of murine primary cortical neurons stimulated with 10 ng/ml TNF-α for 0 or 30 minutes; IP with RNF11 antibody; control IP with antibody omitted; immunoblot with anti-A20 and Itch; densitometry normalised to input, 0 minutes set at 100%
Conditions: partners not purified

| Binder | Itch immunoreactivity in RNF11 immunoprecipitates after 30 minutes of TNF-α, relative to 0 minutes (100%) [%] | A20 immunoreactivity in RNF11 immunoprecipitates after 30 minutes of TNF-α, relative to 0 minutes (100%) [%] |
| --- | --- | --- |
| endogenous Itch (murine primary cortical neurons) (natural protein, E3 ligase Itch (also known as AIP4), endogenous in primary cortical neurons of C57BL/6 mice; also called AIP4; source: endogenous, murine primary cortical neuron lysate) not shown | 166 |  |
| endogenous A20 (murine primary cortical neurons) (natural protein, UniProt Q60769 1-775, looked up, A20 (TNF-α-induced protein 3, TNFAIP3), endogenous in primary cortical neurons of C57BL/6 mice; also called TNFAIP3; source: endogenous, murine primary cortical neuron lysate) MAEQLLPQALYLSNMRKAVKIRERTPEDIFKPTNGIIYHFKTMHRYTLEMFRTCQFCPQFREIIHKALIDRSVQASLESQKKLNWCREVRKLVALKTNGDGNCLMHAACQYMWGVQDTDLVLRKALCSTLKETDTRNFKFRWQLESLKSQEFVETGLCYDTRNWNDEWDNLVKMASADTPAARSGLQYNSLEEIHIFVLSNILRRPIIVISDKMLRSLESGSNFAPLKVGGIYLPLHWPAQECYRYPIVLGYDSQHFVPLVTLKDSGPELRAVPLVNRDRGRFEDLKVHFLTDPENEMKEKLLKEYLIVMEIPVQGWDHGTTHLINAAKLDEANLPKEINLVDDYFELVQHEYKKWQENSDQARRAAHAQNPLEPSTPQLSLMDIKCETPNCPFFMSVNTQPLCHECSERRQKNQSKLPKLNSKLGPEGLPGVGLGSSNWSPEETAGGPHSAPPTAPSLFLFSETTAMKCRSPGCPFTLNVQHNGFCERCHARQINASHTADPGKCQACLQDVTRTFNGICSTCFKRTTAEPSSSLTSSIPASCHQRSKSDPSQLIQSLTPHSCHRTGNVSPSGCLSQAARTPGDRAGTSKCRKAGCMYFGTPENKGFCTLCFIEYRENKQSVTASEKAGSPAPRFQNNVPCLGRECGTLGSTMFEGYCQKCFIEAQNQRFHEARRTEEQLRSSQHRDMPRTTQVASRLKCARASCKNILACRSEELCMECQHLSQRVGSVAHRGEPTPEEPPKQRCRAPACDHFGNAKCNGYCNECYQFKQMYG |  | 129 |
